# Source: patent publication EP4806514A2 (Lepu Biopharma Co., Ltd., dated 2025)
# Substitutions are numbered along the chain they refer to.
# T1: hCDH17-his (full length extracellular domain of human CDH17, Q23-M787, his tag at the C-terminal) (human, UniProt Q12864 23-787)
# T1 construct: Limits of the construct (UniProt Q12864, Q23-M787, C-terminal his tag); also called human CDH17-his protein; human CDH17 protein
# T1 sequence: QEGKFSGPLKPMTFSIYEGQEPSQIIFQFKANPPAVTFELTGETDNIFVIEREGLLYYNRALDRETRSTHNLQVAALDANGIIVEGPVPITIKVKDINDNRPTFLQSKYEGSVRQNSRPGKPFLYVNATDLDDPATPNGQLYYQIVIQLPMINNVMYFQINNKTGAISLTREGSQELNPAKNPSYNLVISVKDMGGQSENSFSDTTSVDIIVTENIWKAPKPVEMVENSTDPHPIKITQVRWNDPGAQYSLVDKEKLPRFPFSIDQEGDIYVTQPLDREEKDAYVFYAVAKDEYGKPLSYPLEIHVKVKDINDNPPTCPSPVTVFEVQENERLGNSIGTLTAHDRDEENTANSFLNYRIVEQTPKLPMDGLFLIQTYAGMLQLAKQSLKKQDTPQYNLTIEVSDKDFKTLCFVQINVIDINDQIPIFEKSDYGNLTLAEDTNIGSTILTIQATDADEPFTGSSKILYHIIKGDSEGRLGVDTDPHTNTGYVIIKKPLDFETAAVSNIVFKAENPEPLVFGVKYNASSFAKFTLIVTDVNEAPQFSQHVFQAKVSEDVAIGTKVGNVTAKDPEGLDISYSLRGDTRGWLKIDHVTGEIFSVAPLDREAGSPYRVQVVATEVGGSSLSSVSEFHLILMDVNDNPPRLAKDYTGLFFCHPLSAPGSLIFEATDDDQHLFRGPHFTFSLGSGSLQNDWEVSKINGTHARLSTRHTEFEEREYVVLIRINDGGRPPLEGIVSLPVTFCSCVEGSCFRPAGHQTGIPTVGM
# T2: human CDH17, full length, expressed on cells (HEK293-hCDH17); AsPC-1, HCT-8, AGS, LoVo, KATO III, HT-29 tumor … (human, UniProt Q12864 23-832)
# T2 construct: also called human CDH17 expressed on tumor cells
# T2 sequence: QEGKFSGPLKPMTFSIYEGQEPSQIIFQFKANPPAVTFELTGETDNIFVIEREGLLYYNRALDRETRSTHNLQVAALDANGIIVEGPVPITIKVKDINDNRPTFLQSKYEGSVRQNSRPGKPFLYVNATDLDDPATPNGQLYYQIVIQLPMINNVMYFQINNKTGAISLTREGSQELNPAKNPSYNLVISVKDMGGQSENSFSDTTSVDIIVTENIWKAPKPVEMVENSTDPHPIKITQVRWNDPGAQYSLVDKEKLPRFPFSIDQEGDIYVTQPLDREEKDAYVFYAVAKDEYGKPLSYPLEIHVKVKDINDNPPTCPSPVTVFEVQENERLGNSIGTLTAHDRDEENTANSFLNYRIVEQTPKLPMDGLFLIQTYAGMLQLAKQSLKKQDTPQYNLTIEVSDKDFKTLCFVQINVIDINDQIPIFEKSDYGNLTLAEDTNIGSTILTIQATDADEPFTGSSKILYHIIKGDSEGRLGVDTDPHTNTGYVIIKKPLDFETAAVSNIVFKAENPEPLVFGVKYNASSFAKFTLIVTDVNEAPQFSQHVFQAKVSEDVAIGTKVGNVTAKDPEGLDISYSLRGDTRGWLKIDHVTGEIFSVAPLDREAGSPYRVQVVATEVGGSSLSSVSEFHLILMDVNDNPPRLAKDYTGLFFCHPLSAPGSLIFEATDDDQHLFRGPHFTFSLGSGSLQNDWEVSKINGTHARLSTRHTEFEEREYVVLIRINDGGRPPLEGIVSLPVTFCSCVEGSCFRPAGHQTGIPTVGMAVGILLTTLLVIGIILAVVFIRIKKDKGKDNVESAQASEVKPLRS
# B1: 29H8D3-z12p1 (antibody, V domains shown)
# VH: QVQLVQSGAEVKKPGASVKVSCKASGYTFTDHTIHWMRQRPGQGLEWIGYIYPREGYTKYNEKFKDRATLTADTSTSTAYMELRSLRSDDTAVYYCARFYYGYWYFDVWGQGTTVTVSS
# VL: DIVMTQSPLSLPVTPGEPASISCRSSKSLLRSNGNTYLYWFLQKPGQSPQVLIYRMSNLASGVPDRFSGSGSGTDFTLKISRVEAEDVGVYYCMQHLEYPFTFGQGTKLEIK
# notes: PTM-removed variant of 29H8D3-z12
# B2: 29H8D3-z12p9 (antibody, V domains shown)
# VH: B1 VH with E55D
# VL: B1 VL with M94H
# notes: as for B1
# B3: 29H8D3-z12p10 (antibody, V domains shown)
# VH: B1 VH with E55D
# VL: B1 VL with M94K
# notes: PTM-removed variant of 29H8D3-z12; VH is that of 29H8D3-z12
# B4: 29H8D3-z12p13 (antibody, V domains shown)
# VH: B1 VH with E55D
# VL: B1 VL with M94S
# notes: as for B3
# B5: 29H8D3-z12p14 (antibody, V domains shown)
# VH: B1 VH with E55D
# VL: B1 VL with M94T
# notes: as for B3
# B6: 29H8D3-z17 (antibody, V domains shown)
# VH: B1 VH with M37V, R40A, I48M, E55D, A68V, L70M, A72T
# VL: B1 VL with D75A
# notes: Humanized, human IgG1 constant region
# B7: 29H8D3-z18 (antibody, V domains shown)
# VH: B1 VH with M37V, R40A, E55D, L70M, A72T
# VL: B1 VL with D75A
# notes: as for B6
# B8: 29H8D3-z19 (antibody, V domains shown)
# VH: B1 VH with R40A, E55D, L70M, A72T
# VL: B1 VL with D75A
# notes: as for B6
# B9: 29H8D3-z20 (antibody, V domains shown)
# VH: B1 VH with E55D
# VL: B1 VL with D75A
# notes: as for B6
# B10: 29H8D3-z21 (antibody, V domains shown)
# VH: B1 VH with M37V, R40A, I48M, E55D, A68V, L70M, A72T
# VL: B1 VL with D75A, Q105A
# notes: as for B6
# B11: 29H8D3-z22 (antibody, V domains shown)
# VH: B1 VH with M37V, R40A, E55D, L70M, A72T
# VL: B1 VL with D75A, Q105A
# notes: as for B6
# B12: 29H8D3-z23 (antibody, V domains shown)
# VH: B1 VH with R40A, E55D, L70M, A72T
# VL: B1 VL with D75A, Q105A
# notes: as for B6
# B13: 29D2D7-z19 (antibody, V domains shown)
# VH: QVQLVQSGAEVKKPGASVKVSCKASGYTFTDYDMHWVKQAPGQGLEWIGGFDPESAGTVYNLRFKDKATLTADKSTSTAYMELRSLRSEDTAVYYCARKGYYSVSSPFTYWGQGTLVTVSS
# VL: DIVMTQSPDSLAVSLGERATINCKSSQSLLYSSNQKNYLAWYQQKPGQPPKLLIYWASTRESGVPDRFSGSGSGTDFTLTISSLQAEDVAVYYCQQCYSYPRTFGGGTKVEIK
# notes: as for B6
# B14: 61C7F12-z2 (antibody, V domains shown)
# VH: EVQLVESGGGLVKPGGSLRLSCAASGFTFSSYAMSWVRQAPGKGLEWVSTINIGGSYTYYPDSVKGRFTISRDNAKNSLYLQMNSLRAEDTAVYYCARQEGRYWYFDVWGQGTTVTVSS
# VL: DIQLTQSPSFLSASVGDRVTITCTASSSVSSSYLHWYQQKPGKAPKLWIYSTSNLASGVPSRFSGSGSGTEYTLTISSLQPEDFATYYCHQFHRSPYTFGGGTKVEIK
# notes: Humanized, human IgG1 constant region; also called 61C7F12 HU-VH1-0 / HU-VL1-1
# B15: 61C7F12-z1 (antibody, V domains shown)
# VH: B14 VH
# VL: B14 VL with W48L, Y72F
# notes: Humanized, human IgG1 constant region; also called 61C7F12 HU-VH1-0 / HU-VL1-0
# B16: 61C7F12-z3 (antibody, V domains shown)
# VH: B14 VH
# VL: B14 VL with Q3V, A44S, T73S
# notes: Humanized, human IgG1 constant region; also called 61C7F12 HU-VH1-0 / HU-VL1-2
# B17: 61C7F12-z4 (antibody, V domains shown)
# VH: B14 VH
# VL: B14 VL with D1Q, Q3V, A44S, E71S, T73S
# notes: Humanized, human IgG1 constant region; also called 61C7F12 HU-VH1-0 / HU-VL1-3
# B18: 61C7F12-z5 (antibody, V domains shown)
# VH: B14 VH with S49A
# VL: B14 VL with W48L, Y72F
# notes: Humanized, human IgG1 constant region; also called 61C7F12 HU-VH1-1 / HU-VL1-0
# B19: 61C7F12-z6 (antibody, V domains shown)
# VH: B14 VH with S49A
# VL: B14 VL
# notes: Humanized, human IgG1 constant region; also called 61C7F12 HU-VH1-1 / HU-VL1-1
# B20: 61C7F12-z7 (antibody, V domains shown)
# VH: B14 VH with S49A
# VL: B14 VL with Q3V, A44S, T73S
# notes: Humanized, human IgG1 constant region; also called 61C7F12 HU-VH1-1 / HU-VL1-2
# B21: 61C7F12-z8 (antibody, V domains shown)
# VH: B14 VH with S49A
# VL: B14 VL with D1Q, Q3V, A44S, E71S, T73S
# notes: Humanized, human IgG1 constant region; also called 61C7F12 HU-VH1-1 / HU-VL1-3
# B22: 61C7F12-z9 (antibody, V domains shown)
# VH: B14 VH
# VL: EIVLTQSPGTLSLSPGERATLSCTASSSVSSSYLHWYQQKPGQAPRLLIYSTSNLASGIPDRFSGSGSGTDFTLTISRLEPEDFAVYYCHQFHRSPYTFGGGTKVEIK
# notes: Humanized, human IgG1 constant region; also called 61C7F12 HU-VH1-0 / HU-VL2-0
# B23: 61C7F12-z10 (antibody, V domains shown)
# VH: B14 VH with S49A
# VL: B22 VL
# notes: Humanized, human IgG1 constant region; also called 61C7F12 HU-VH1-1 / HU-VL2-0
# B24: 69E3H11-z12 (antibody, V domains shown)
# VH: QVQLVQSGAEVKKPGASVKVSCKASGYTFTTYWMHWVKQAPGQRLEWIGEIDPSDSYANYNQKFKGKATLTVDKSASTAYMELSSLRSEDTAVYYCALYYGYGDWGQGTTVTVSS
# VL: EIVLTQSPGTLSLSPGERATLSCSVSSSISSIHLHWYQQKPGQAPRLLIYRTSNLASGIPDRFSGSGSGTDFTLTISRLEPEDFAVYYCQQGSNLPLTFGQGTRLEIK
# notes: Humanized, human IgG1 constant region; also called 69E3H11 HU-VH1-3 / HU-VL2-0
# B25: 69E3H11-z10 (antibody, V domains shown)
# VH: B24 VH
# VL: EIVLTQSPDFQSVTPKEKVTITCSVSSSISSIHLHWYQQKPDQSPKLLIKRTSNLASGVPSRFSGSGSGTDFTLTINSLEAEDAATYYCQQGSNLPLTFGQGTRLEIK
# notes: Humanized, human IgG1 constant region; also called 69E3H11 HU-VH1-3 / HU-VL1-0
# Key:
# [1] = target: T1, hCDH17-his (full length extracellular …); test: SPR (Biacore 8K), two doses, antibody captured on Protein A chip, hCDH17-his at 25 nM and 100 nM
# [2] = target: T1, hCDH17-his (full length extracellular …); test: SPR (Biacore 8K), antibody captured on Protein A chip, hCDH17-his injected
# [3] = target: T2, human CDH17, full length, expressed on …; test: flow cytometry, HEK293-hCDH17 cells
Binder,binding result [1],binding result [2],binding result [3]
B1,binds,–,–
B2,binds,–,–
B3,binds,–,–
B4,binds,–,–
B5,binds,–,–
B6,–,binds,–
B7,–,binds,–
B8,–,binds,–
B9,–,binds,–
B10,–,binds,–
B11,–,binds,–
B12,–,binds,–
B13,–,binds,binds
B14,–,binds,binds
B15,–,binds,binds
B16,–,binds,binds
B17,–,–,binds
B18,–,–,binds
B19,–,–,binds
B20,–,–,binds
B21,–,binds,binds
B22,–,binds,binds
B23,–,binds,binds
B24,–,binds,binds
B25,–,–,binds
